The record followed here is publication doi:10.1101/2020.06.01.127969.

This experiment deals with RNA polymerase II with SNAP-tagged Rpb1 labelled with SNAP-Surface 549 (Rpb1^SNAP549) (S. cerevisiae) (UniProt P04050). In words: CoSMoS.
Sequence of UniProt P04050 (P04050 whole entry, looked up): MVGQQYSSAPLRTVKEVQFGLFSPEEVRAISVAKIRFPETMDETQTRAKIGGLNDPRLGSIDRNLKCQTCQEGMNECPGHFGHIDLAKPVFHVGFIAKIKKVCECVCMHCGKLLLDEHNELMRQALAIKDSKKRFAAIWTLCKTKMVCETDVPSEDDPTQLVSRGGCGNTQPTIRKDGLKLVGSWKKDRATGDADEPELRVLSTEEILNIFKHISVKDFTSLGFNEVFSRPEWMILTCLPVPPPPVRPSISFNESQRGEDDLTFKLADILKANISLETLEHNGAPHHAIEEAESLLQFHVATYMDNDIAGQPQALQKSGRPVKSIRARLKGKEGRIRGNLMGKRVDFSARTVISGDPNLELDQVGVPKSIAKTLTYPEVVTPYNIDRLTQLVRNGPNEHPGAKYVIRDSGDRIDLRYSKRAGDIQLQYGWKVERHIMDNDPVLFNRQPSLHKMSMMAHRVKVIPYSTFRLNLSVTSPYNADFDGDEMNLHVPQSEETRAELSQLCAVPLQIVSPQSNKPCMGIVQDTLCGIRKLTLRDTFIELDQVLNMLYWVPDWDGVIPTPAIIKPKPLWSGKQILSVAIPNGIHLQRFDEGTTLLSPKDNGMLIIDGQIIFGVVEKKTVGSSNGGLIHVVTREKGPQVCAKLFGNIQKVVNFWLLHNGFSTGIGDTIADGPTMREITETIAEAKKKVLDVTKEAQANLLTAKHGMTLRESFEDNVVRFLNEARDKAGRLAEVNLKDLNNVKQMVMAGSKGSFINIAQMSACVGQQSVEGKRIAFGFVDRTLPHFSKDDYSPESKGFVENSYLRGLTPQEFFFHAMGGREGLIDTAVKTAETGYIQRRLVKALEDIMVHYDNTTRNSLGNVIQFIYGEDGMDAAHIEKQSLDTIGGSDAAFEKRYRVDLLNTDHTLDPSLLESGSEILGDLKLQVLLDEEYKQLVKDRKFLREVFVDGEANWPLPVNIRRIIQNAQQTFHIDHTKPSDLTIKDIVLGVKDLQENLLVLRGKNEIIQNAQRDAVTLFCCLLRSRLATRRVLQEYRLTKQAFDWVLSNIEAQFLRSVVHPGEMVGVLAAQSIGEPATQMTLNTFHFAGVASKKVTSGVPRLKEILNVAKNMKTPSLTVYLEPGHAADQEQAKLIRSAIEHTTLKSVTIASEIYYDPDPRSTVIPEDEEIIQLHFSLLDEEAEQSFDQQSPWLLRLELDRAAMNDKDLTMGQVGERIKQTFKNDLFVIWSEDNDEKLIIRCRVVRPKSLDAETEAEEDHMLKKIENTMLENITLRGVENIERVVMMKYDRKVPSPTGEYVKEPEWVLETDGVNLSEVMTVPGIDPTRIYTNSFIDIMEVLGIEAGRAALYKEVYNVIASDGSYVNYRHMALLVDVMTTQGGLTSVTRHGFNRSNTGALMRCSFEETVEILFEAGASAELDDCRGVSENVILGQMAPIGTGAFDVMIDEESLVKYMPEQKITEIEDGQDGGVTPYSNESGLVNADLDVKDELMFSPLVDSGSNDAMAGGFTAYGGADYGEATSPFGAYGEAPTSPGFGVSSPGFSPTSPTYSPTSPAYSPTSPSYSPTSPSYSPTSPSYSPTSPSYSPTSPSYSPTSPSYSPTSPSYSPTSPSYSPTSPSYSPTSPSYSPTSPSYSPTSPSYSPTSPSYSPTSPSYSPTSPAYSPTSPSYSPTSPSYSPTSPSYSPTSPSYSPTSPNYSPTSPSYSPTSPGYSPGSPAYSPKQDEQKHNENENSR

B1: elongation factor Spt4/5 with DHFR-tagged Spt5 labelled with Cy5-TMP (Spt5^DHFR-Cy5) (complex)
chain 1: MSDNSDTNVSMQDHDQQFADPVVVPQSTDTKDENTSDKDTVDSGNVTTTESTERAESTSNIPPLDGEEKEAKSEPQQPEDNAETAATEQVSSSNGPATDDAQATLNTDSSEANEIVKKEEGSDERKRPREEDTKNSDGDTKDEGDNKDEDDDEDDDDDDDDEDDDDEAPTKRRRQERNRFLDIEAEVSDDEDEDEDEEDSELVREGFITHGDDEDDEASAPGARRDDRLHRQLDQDLNKTSEEDAQRLAKELRERYGRSSSKQYRAAAQDGYVPQRFLLPSVDTATIWGVRCRPGKEKELIRKLLKKKFNLDRAMGKKKLKILSIFQRDNYTGRIYIEAPKQSVIEKFCNGVPDIYISQKLLIPVQELPLLLKPNKSDDVALEEGSYVRIKRGIYKGDLAMVDQISENNLEVMLKIVPRLDYGKFDEIDPTTQQRKSRRPTFAHRAPPQLFNPTMALRLDQANLYKRDDRHFTYKNEDYIDGYLYKSFRIQHVETKNIQPTVEELARFGSKEGAVDLTSVSQSIKKAQAAKVTFQPGDRIEVLNGEQRGSKGIVTRTTKDIATIKLNGFTTPLEFPISTLRKIFEPGDHVTVINGEHQGDAGLVLMVEQGQVTFMSTQTSREVTITANNLSKSIDTTATSSEYALHDIVELSAKNVACIIQAGHDIFKVIDETGKVSTITKGSILSKINTARARVSSVDANGNEIKIGDTIVEKVGSRREGQVLYIQTQQIFVVSKKIVENAGVFVVNPSNVEAVASKDNMLSNKMDLSKMNPEIISKMGPPSSKTFQQPIQSRGGREVALGKTVRIRSAGYKGQLGIVKDVNGDKATVELHSKNKHITIDKHKLTYYNREGGEGITYDELVNRRGRVPQARMGPSYVSAPRNMATGGIAAGAAATSSGLSGGMTPGWSSFDGGKTPAVNAHGGSGGGGVSSWGGASTWGGQGNGGASAWGGAGGGASAWGGQGTGATSTWGGASAWGNKSSWGGASTWASGGESNGAMSTWGGTGDRSAYGGASTWGGNNNNKSTRDGGASAWGNQDDGNRSAWNNQGNKSNYGGNSTWGGH
chain 2: MSSERACMLCGIVQTTNEFNRDGCPNCQGIFEEAGVSTMECTSPSFEGLVGMCKPTKSWVAKWLSVDHSIAGMYAIKVDGRLPAEVVELLPHYKPRDGSQVE
modifications: Cy5-trimethoprim (Cy5-TMP) bound non-covalently to the DHFR tag
For the molecule B1, the 1/k-5 (average time to dissociate from elongation complexes) stood at 56 s; the frequency of association with a DNA containing Rpb1^SNAP549, with added NTPs was found to be 0.0094 s⁻¹; the kapp = k-5 + k6 (aggregate dissociation rate constant, pooled events) turned out to be 0.021 s⁻¹; the kapp,prior (only events in which Spt4/5 left before RNApII) came out at 0.021 s⁻¹. In addition, the kapp,simul (only events in which Spt4/5 and RNApII left simultaneously) worked out at 0.018 s⁻¹.
